# US20130216549A1
# B1: CC21R3P5_C5 (scFv format) (scFv, part only; not given: scFv linker, part only)
# scFv, part: QVQLVQSGGGVVQPGRSLRLSCAASGFTFSTYGMHWVRQAPGKGLEWVAVISYDGGTKYYADSVKGRFTISRDNSMKTLYLQMNSLRTEDTAVYYCAKDLGDLPPGLDYWGRGTMVTVSSCHEMICALLYSYNTHESIZEDSYELTQPPSVSVALGQTATITCGGSSIESKSVHWYQEKPGQAPVLVIYKDSNRPSVIPERFSGSNSGNTATLTIGRAQAGDEADYYCQVWDSSTGVVFGGGTKLTVL
# Target: recombinant human IP-10 (Peprotech) (human) (UniProt P02778)
# Experiment: cell-based or functional assay
# Sequence of recombinant human IP-10 (Peprotech) (human) (P02778 22-98 limits assumed): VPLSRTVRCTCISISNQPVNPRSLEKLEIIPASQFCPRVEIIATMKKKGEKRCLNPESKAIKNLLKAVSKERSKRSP
binder,measurement,value
B1,Calcium flux IC50 (nM); 10 nM hIP-10,89 nM
same,Chemotaxis IC50 (nM); 1 nM hIP-10,90 nM
